Measurements published in the Human Domainome abundance scans (Beltran et al. 2025).
± gives the uncertainty stated by the source.

B1: Gamma-crystallin C, residues 4 to 79; numbered along this chain, P07315 (parent)
chain: ITFYEDRAFQGRSYETTTDCPNLQPYFSRCNSIRVESGCWMLYERPNYQGQQYLLRRGEYPDYQQWMGLSDSIRSC

Variants of: B1
Experiment: abundance fitness (aPCA) (normalised: wild type 0, dead -1); higher = more abundant; growth selection in yeast, the domain comes from the species named
Settings: Homo sapiens

Variant	abundance fitness
D71Y	-0.027 ± 0.081
D71E	0.027 ± 0.086
D71V	-0.004 ± 0.059
D71L	0.021 ± 0.068
D71N	-0.007 ± 0.12
D71H	-0.092 ± 0.1
E44G	0.02 ± 0.057
E44P	-0.283 ± 0.15
E44S	-0.077 ± 0.1
E44A	-0.034 ± 0.085
E44Q	0.049 ± 0.13
S75A	-0.054 ± 0.093
S75F	-0.979 ± 0.26
S75M	-0.675 ± 0.13
C20S	0.104 ± 0.11
C20Y	-0.079 ± 0.11
C20L	-0.042 ± 0.057
C76Y	-0.719 ± 0.13
C76R	-0.904 ± 0.25
C76Q	-0.592 ± 0.15
C76P	-0.984 ± 0.18
C76E	-0.795 ± 0.32
C76W	-0.545 ± 0.22
C76F	-0.539 ± 0.086

Variant	abundance fitness
V35E	-1.11 ± 0.27
V35A	-0.422 ± 0.11
V35Q	-0.854 ± 0.28
R57V	0.024 ± 0.078
R57Q	0.044 ± 0.14
R57F	0.059 ± 0.2
R57T	0.244 ± 0.35
A8Y	-0.101 ± 0.42
A8W	-0.069 ± 0.051
A8E	0.103 ± 0.11
A8S	-0.016 ± 0.14
A8C	0.072 ± 0.092
A8V	-0.064 ± 0.069
A8P	-0.312 ± 0.16
A8H	0.016 ± 0.2
W40I	0.01 ± 0.3
W40M	-0.496 ± 0.15
W40Y	-0.16 ± 0.28
W40P	-0.939 ± 0.27
W40L	-0.243 ± 0.052
W40S	-0.451 ± 0.13
S70R	-0.064 ± 0.067
S70C	0.101 ± 0.16
S70Y	0.047 ± 0.096

Variant	abundance fitness
S70G	-0.007 ± 0.055
S70F	-0.053 ± 0.079
S70A	0.02 ± 0.05
S70W	0.048 ± 0.068
S70L	-0.047 ± 0.049
S70Q	-0.077 ± 0.15
S72Y	0.01 ± 0.11
S72T	-0.145 ± 0.088
S72K	0.058 ± 0.13
Q65A	0.006 ± 0.068
Q65P	0.027 ± 0.1
Q65F	-0.253 ± 0.13
Q65C	0 ± 0.11
Q65Y	0.029 ± 0.13
G58V	-1 ± 0.22
G58W	-0.408 ± 0.12
G58P	-0.674 ± 0.15
G58M	-0.223 ± 0.12
G58Y	0.009 ± 0.41
G58K	-0.197 ± 0.17
C30W	-0.58 ± 0.13
C30R	-0.768 ± 0.14
C30E	-0.95 ± 0.29
C30T	-0.176 ± 0.12

Variant	abundance fitness
C30S	0.03 ± 0.071
E36G	-0.031 ± 0.056
E36F	-0.131 ± 0.21
E36Q	-0.081 ± 0.1
E36N	-0.004 ± 0.16
T17M	-0.124 ± 0.11
T17P	-0.01 ± 0.28
T17L	-0.089 ± 0.084
T17C	0.054 ± 0.19
N31V	-0.052 ± 0.35
T2N	-0.002 ± 0.33
T2M	-0.116 ± 0.42
T2E	-0.473 ± 0.15
T2P	-0.838 ± 0.17
T2L	-0.15 ± 0.097
T2I	0.093 ± 0.25
Y4H	-0.364 ± 0.13
Y4F	0.333 ± 0.4
Y4P	-1.12 ± 0.34
E5G	-0.124 ± 0.055
E5V	-0.107 ± 0.078
E5I	0.122 ± 0.2
E5Q	-0.076 ± 0.17
E5K	-0.162 ± 0.16

Variant	abundance fitness
R29V	-0.009 ± 0.079
R29W	-0.053 ± 0.1
R29S	0.059 ± 0.1
R29Y	0.024 ± 0.16
R29D	-0.239 ± 0.16
F3R	-1.18 ± 0.28
F3L	-0.036 ± 0.078
F3P	-1 ± 0.36
F3T	-0.753 ± 0.27
F3Q	-0.94 ± 0.23
R56W	-0.029 ± 0.18
R56Q	-0.003 ± 0.2
N22L	0.036 ± 0.076
N22A	-0.041 ± 0.088
N22E	-0.1 ± 0.13
N22F	0.17 ± 0.13
N22D	-0.004 ± 0.13
N22K	0.064 ± 0.072
E59L	-0.084 ± 0.1
E59K	0 ± 0.11
E59A	-0.07 ± 0.071
E59T	-0.196 ± 0.34
E59N	-0.155 ± 0.23
Q10G	-0.002 ± 0.038

Variant	abundance fitness
Q10M	-0.228 ± 0.11
Q10Y	-0.107 ± 0.22
Q10F	-0.082 ± 0.14
Q10C	0.053 ± 0.075
S37W	-0.113 ± 0.13
S37G	-0.061 ± 0.062
S37L	-0.301 ± 0.13
G50V	-0.788 ± 0.23
G50A	-0.276 ± 0.17
G50C	-0.336 ± 0.35
Y43W	-0.139 ± 0.12
Y43R	-0.926 ± 0.14
Y43P	-1.03 ± 0.45
Y48R	-0.508 ± 0.049
Y48L	-0.182 ± 0.072
Y48N	-0.121 ± 0.28
Y48M	0.148 ± 0.068
Y48A	-0.329 ± 0.11
Y48C	0.083 ± 0.2
Y48G	-0.109 ± 0.064
G38T	-0.191 ± 0.11
G38C	-0.005 ± 0.14
Y14H	-0.117 ± 0.12
Y14K	-0.163 ± 0.1

Variant	abundance fitness
Y14F	0.114 ± 0.14
P61M	0.002 ± 0.068
P61H	-0.205 ± 0.14
P61L	-0.064 ± 0.072
M67F	-0.091 ± 0.093
M67L	-0.011 ± 0.053
M67Y	-0.067 ± 0.096
M67G	-0.113 ± 0.06
P21Q	0.016 ± 0.086
E15A	-0.113 ± 0.14
E15W	0.069 ± 0.14
E15Y	-0.057 ± 0.2
S28N	0.058 ± 0.15
S28Y	-0.012 ± 0.22
S28E	0.093 ± 0.098
T18M	-0.008 ± 0.11
T18S	0.044 ± 0.1
T18P	-0.847 ± 0.25
T18D	0.169 ± 0.44
T18W	0.017 ± 0.091
T18G	-0.006 ± 0.033
T18K	-0.065 ± 0.13
I33M	0.191 ± 0.14
I33P	-0.756 ± 0.19

Variant	abundance fitness
P25T	0.199 ± 0.11
P25L	0.021 ± 0.098
P25Q	-0.05 ± 0.13
P25G	0.032 ± 0.073
P25M	0.005 ± 0.11
Y26T	-0.186 ± 0.097
Y26P	-0.046 ± 0.16
Y26R	-0.031 ± 0.072
Y26M	0.078 ± 0.084
Q64A	-0.08 ± 0.056
Q64W	-0.021 ± 0.07
Q64G	-0.045 ± 0.059
Q64E	0.024 ± 0.083
Q64K	-0.042 ± 0.12
Q64V	-0.022 ± 0.062
F9T	-0.56 ± 0.3
F9W	-0.028 ± 0.067
Q49C	0.33 ± 0.29
Q49W	-0.275 ± 0.09
Q49L	0.022 ± 0.11
Q49E	0.098 ± 0.15
Q49T	0.026 ± 0.12
Q49Y	-0.013 ± 0.3
Q49A	-0.02 ± 0.085

Variant	abundance fitness
I73F	-0.083 ± 0.12
I73W	0.124 ± 0.12
I73Y	-0.207 ± 0.3
I73A	0.055 ± 0.053
I73T	0.053 ± 0.1
L69C	0.07 ± 0.12
L69I	-0.23 ± 0.26
L69R	-0.021 ± 0.048
L69Y	-0.001 ± 0.18
L69Q	0.08 ± 0.12
G11V	-0.393 ± 0.06
G11F	-0.919 ± 0.39
G11Y	-0.591 ± 0.19
G11S	-0.142 ± 0.079
G11Q	-0.421 ± 0.15
L55W	-0.631 ± 0.26
L55H	-1.03 ± 0.39
L55R	-0.794 ± 0.15
L55D	-0.807 ± 0.32
L55V	-0.048 ± 0.078
D62W	0.059 ± 0.087
D62S	-0.071 ± 0.085
D62M	-0.03 ± 0.084
D62I	-0.26 ± 0.23

Variant	abundance fitness
D62R	-0.034 ± 0.057
D62V	-0.015 ± 0.06
D62Q	-0.062 ± 0.082
F27R	-0.269 ± 0.08
L23S	-0.39 ± 0.12
L23A	-0.173 ± 0.082
L23E	-0.617 ± 0.16
L23V	0.005 ± 0.064
L23I	-0.059 ± 0.31
L23W	-0.771 ± 0.26
L23M	0.027 ± 0.18
L23T	-0.081 ± 0.12
L42G	-0.063 ± 0.065
L42P	-0.864 ± 0.27
L42M	0.045 ± 0.25
L42S	-0.287 ± 0.098
L42W	-0.919 ± 0.27
R12I	0.017 ± 0.077
R12S	-0.033 ± 0.048
R12Q	0.022 ± 0.083
R12T	0.024 ± 0.082
R12K	0.031 ± 0.1
G68T	0.068 ± 0.076
G68E	-0.062 ± 0.12

Variant	abundance fitness
G68C	0.117 ± 0.083
G68V	0.007 ± 0.065
Q51V	-0.016 ± 0.1
Q51D	-0.056 ± 0.13
Q51W	-0.149 ± 0.13
Q51E	-0.023 ± 0.099
R7P	0.219 ± 0.3
R7I	-0.141 ± 0.31
R7V	0.045 ± 0.087
R7S	-0.117 ± 0.11
R7W	-0.086 ± 0.11
R74Q	-0.001 ± 0.1
R74C	0.037 ± 0.088
R74G	0.022 ± 0.044
R74E	-0.021 ± 0.066
Q52I	-0.105 ± 0.19
Q52E	0.014 ± 0.17
Q52S	-0.041 ± 0.12
T16Y	0.202 ± 0.17
T16G	-0.089 ± 0.058
T16F	0.084 ± 0.1
T16E	-0.291 ± 0.12
T16L	0.013 ± 0.086
T16W	0.012 ± 0.085

Variant	abundance fitness
Q24V	0.006 ± 0.071
Q24G	0.027 ± 0.074
Q24K	-0.048 ± 0.12
Y53I	0.131 ± 0.26
Y53G	-0.143 ± 0.079
Y53V	-0.025 ± 0.085
Y53W	0.084 ± 0.085
Y53M	-0.005 ± 0.16
W66G	0.059 ± 0.046
W66P	0.005 ± 0.1
W66L	-0.082 ± 0.074
W66N	0.091 ± 0.15
W66E	0.068 ± 0.098
D6F	-0.204 ± 0.14
D6M	0.159 ± 0.25
D6L	0.032 ± 0.083
L54V	0.02 ± 0.084
L54C	0.085 ± 0.14
L54A	-0.016 ± 0.08
L54S	-0.003 ± 0.088
L54R	-0.104 ± 0.081
M41N	-0.132 ± 0.42
M41E	0.059 ± 0.12
M41D	-0.133 ± 0.22

Variant	abundance fitness
D19P	-0.35 ± 0.16
D19Y	-0.187 ± 0.24
D19I	-0.011 ± 0.18
D19T	-0.135 ± 0.12
D19A	-0.086 ± 0.09
C39M	-0.027 ± 0.27
C39G	0.08 ± 0.071
C39E	-0.045 ± 0.17
C39R	-0.071 ± 0.07
C39P	0.092 ± 0.13
C39V	0.011 ± 0.072
N47C	-0.159 ± 0.15
N47A	0.047 ± 0.084
N47G	0.08 ± 0.066
N47Q	-0.179 ± 0.078
N47W	-0.086 ± 0.11
N47L	-0.01 ± 0.066
N47R	-0.038 ± 0.058
R34F	-0.113 ± 0.21
R34G	-0.593 ± 0.078
R45T	-0.001 ± 0.12
R45C	-0.142 ± 0.19
R45F	0.032 ± 0.13
R45Y	0.187 ± 0.27

Variant	abundance fitness
R45V	-0.15 ± 0.085
R45M	-0.001 ± 0.1
R45W	-0.04 ± 0.1
R45G	0.061 ± 0.067
R45D	-0.11 ± 0.14
Y63D	-0.067 ± 0.12
Y63F	0.032 ± 0.19
Y63W	-0.126 ± 0.073
Y63T	-0.113 ± 0.086
Y63A	-0.115 ± 0.062
Y63V	-0.103 ± 0.054
S13A	-0.051 ± 0.085
S13T	-0.043 ± 0.13
S13I	0.028 ± 0.15
S13K	0.148 ± 0.17
S13H	-0.025 ± 0.15
S32F	-1.09 ± 0.38
S32H	-0.642 ± 0.21
S32R	-1.07 ± 0.31
S32L	-0.985 ± 0.2
S32K	-0.953 ± 0.17
S32I	-0.805 ± 0.43
